Assay results from PMC7076203.

Target: WT APP (amyloid precursor protein) stably expressed in H4-APPwt cells (human) (UniProt P05067)
Sequence (P05067 18-770): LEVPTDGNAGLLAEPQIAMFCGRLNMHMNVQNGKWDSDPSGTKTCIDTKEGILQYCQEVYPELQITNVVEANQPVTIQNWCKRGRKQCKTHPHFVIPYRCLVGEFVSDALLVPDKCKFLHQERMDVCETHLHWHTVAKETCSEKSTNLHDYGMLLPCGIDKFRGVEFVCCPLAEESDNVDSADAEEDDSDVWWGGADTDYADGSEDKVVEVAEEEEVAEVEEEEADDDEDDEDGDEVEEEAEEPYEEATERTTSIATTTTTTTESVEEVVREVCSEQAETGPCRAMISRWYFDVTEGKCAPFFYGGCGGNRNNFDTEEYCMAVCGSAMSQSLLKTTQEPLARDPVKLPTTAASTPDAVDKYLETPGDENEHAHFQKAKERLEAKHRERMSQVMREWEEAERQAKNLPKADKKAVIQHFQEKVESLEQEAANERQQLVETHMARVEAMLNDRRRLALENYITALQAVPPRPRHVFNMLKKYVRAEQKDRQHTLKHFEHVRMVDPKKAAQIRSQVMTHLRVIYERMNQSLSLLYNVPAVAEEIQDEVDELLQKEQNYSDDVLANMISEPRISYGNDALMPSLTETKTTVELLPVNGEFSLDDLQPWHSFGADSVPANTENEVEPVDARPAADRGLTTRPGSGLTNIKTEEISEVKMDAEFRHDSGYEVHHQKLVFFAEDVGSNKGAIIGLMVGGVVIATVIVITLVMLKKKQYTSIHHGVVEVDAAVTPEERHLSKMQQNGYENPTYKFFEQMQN

Chain of GAL3BP (preparation not stated) (Q08380 19-585): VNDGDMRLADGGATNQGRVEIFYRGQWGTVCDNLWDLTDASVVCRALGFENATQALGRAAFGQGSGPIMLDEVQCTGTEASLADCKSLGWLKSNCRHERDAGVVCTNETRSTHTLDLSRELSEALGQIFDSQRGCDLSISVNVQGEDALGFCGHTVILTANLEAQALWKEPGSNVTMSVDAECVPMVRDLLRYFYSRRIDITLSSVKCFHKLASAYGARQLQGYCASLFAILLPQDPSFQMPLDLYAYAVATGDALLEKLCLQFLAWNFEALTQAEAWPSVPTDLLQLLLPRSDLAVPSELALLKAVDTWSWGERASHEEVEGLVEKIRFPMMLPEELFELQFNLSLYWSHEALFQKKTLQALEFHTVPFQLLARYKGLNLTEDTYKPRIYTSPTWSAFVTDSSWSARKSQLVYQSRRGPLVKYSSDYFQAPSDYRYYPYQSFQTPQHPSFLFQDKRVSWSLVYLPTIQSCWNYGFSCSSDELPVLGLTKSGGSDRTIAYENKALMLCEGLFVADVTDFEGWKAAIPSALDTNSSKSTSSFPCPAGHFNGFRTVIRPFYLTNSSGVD

suppression of Aβ40 and Aβ42 production in H4-APPwt cells by GAL3BP: 30%
Substance: GAL3BP (preparation not stated) (from UniProt Q08380 19-585) (natural protein)
